According to US20220273751A1, “GPCR HETEROMER INHIBITORS AND USES THEREOF” (GPCR THERAPEUTICS, INC., priority 2019, published 2022):

Biological target: CXCR4 (C-X-C Motif Chemokine Receptor 4) (human) (UniProt P61073)
Assay: cell-based or functional assay

CXCR4 (C-X-C Motif Chemokine Receptor 4) (human), sequence (P61073 whole entry): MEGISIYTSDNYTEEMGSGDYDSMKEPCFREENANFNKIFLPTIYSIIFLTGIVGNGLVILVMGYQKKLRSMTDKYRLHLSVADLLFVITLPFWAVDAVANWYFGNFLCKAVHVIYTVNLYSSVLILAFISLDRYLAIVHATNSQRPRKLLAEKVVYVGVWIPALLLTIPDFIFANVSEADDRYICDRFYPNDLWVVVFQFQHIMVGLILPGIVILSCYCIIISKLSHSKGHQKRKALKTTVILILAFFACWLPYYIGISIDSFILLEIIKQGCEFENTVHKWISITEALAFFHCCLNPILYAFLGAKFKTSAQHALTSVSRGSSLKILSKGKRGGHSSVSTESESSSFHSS

BKT140 (peptide)
IC50 of Ca2+ response, MDA-MB-231 cells expressing CXCR4 alone: 579 nM
IC50 of Ca2+ response, MDA-MB-231 cells with CXCR4 + ADRB2, with Carvedilol 600 nM: 1.94 nM
IC50 of Ca2+ response, MDA-MB-231 cells with CXCR4 + ADRB2, without Carvedilol: 88.7 nM
